# B1: Rat p75 neurotrophin receptor (p75^NTR), wild type, N-terminal HA tag (receptor, UniProt P07174 30-425, looked up)
# chain: KETCSTGLYTHSGECCKACNLGEGVAQPCGANQTVCEPCLDNVTFSDVVSATEPCKPCTECLGLQSMSAPCVEADDAVCRCAYGYYQDEETGHCEACSVCEVGSGLVFSCQDKQNTVCEECPEGTYSDEANHVDPCLPCTVCEDTERQLRECTPWADAECEEIPGRWIPRSTPPEGSDSTAPSTQEPEVPPEQDLVPSTVADMVTTVMGSSQPVVTRGTTDNLIPVYCSILAAVVVGLVAYIAFKRWNSCKQNKQGANSRPVNQTPPPEGEKLHSDSGISVDSQSLHDQQTHTQTASGQALKGDGNLYSSLPLTKREEVEKLLNGDTWRHLAGELGYQPEHIDSFTHEACPVRALLASWGAQDSATLDALLAALRRIQRADIVESLCSESTATSPV
# B2: Endogenous rat p75^NTR (receptor, UniProt P07174 30-425, looked up)
# chain: B1 chain
# Target: the molecule itself
# Test: non-reducing SDS-PAGE of immunoprecipitates
row,Protein,stoichiometry N
1,B1,2
2,B2,2

# Reference: paper PMC2810632 (Neuron, 2009)
